The target in one assay is T1, 4H1392-AA.
T1 chain: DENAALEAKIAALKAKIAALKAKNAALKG
Description: two-hybrid library CCmax.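 Note: natural log of median RNA to DNA barcode read ratio; higher means stronger binding.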 To be noted: mean of both orientations.

In a further assay the target is T2, 4H_BCR.
T2 chain: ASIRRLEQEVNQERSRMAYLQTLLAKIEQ
Description: two-hybrid library CCmax.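 Note: natural log of median RNA to DNA barcode read ratio; higher means stronger binding.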 Particulars: mean of both orientations.

A further assay has as its target T3, 4H1385-AA.
T3 chain: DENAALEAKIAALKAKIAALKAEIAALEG
The experiment in a line: two-hybrid library CCmax.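 Note: natural log of median RNA to DNA barcode read ratio; higher means stronger binding.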 Particulars: mean of both orientations.

A further assay deals with T4, O14-AA.
T4 chain: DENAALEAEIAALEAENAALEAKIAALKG
Description: two-hybrid library CCmax.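 Note: natural log of median RNA to DNA barcode read ratio; higher means stronger binding.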 To be noted: mean of both orientations.

The target in another assay is T5, 4H451-AA.
T5 chain: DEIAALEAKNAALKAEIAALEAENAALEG
Description: two-hybrid library CCmax.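 Note: natural log of median RNA to DNA barcode read ratio; higher means stronger binding.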 Particulars: mean of both orientations.

The target in another assay is T6, 4H3587-AA.
T6 chain: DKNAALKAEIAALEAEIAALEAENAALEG
Description: two-hybrid library CCmax.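 Note: natural log of median RNA to DNA barcode read ratio; higher means stronger binding.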 To be noted: mean of both orientations.

The target in another assay is T7, 4H3590-AA.
T7 chain: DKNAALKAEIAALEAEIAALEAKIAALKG
Description: two-hybrid library CCmax. Particulars: mean of both orientations.

A further assay has as its target T8, 4H384-AA.
T8 chain: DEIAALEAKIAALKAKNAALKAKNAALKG
The experiment in a line: two-hybrid library CCmax. To be noted: mean of both orientations.

The target in the next assay is T9, 4H1350-AA.
T9 chain: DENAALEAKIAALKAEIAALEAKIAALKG
The experiment in a line: two-hybrid library CCmax. Particulars: mean of both orientations.

A further assay concerns the target T10, 4H3049-AA.
T10 chain: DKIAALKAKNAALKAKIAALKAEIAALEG
The experiment in a line: two-hybrid library CCmax. To be noted: mean of both orientations.

In another assay the target is T11, 4H2705-AA.
T11 chain: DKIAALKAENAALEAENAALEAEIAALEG
Description: two-hybrid library CCmax. Particulars: mean of both orientations.

The next assay has as its target T12, 4H2622-AA.
T12 chain: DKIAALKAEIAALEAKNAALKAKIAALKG
Description: two-hybrid library CCmax. To be noted: mean of both orientations.

In a further assay the target is T13, 4H510-AA.
T13 chain: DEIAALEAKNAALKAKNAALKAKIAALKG
Description: two-hybrid library CCmax. To be noted: mean of both orientations.

Another assay deals with T14, 4H43-AA.
T14 chain: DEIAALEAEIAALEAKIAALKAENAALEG
Description: two-hybrid library CCmax. Particulars: mean of both orientations.

Another assay concerns the target T15, 4H_APH.
T15 chain: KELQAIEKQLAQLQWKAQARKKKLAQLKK
The experiment in a line: two-hybrid library CCmax. To be noted: mean of both orientations.

For another assay, the target named is T16, 4H3625-AA.
T16 chain: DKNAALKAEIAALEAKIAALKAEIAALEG
Description: two-hybrid library CCmax. Particulars: mean of both orientations.

The target in the next assay is T17, 4H134-AA.
T17 chain: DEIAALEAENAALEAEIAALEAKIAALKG
Description: two-hybrid library CCmax. Particulars: mean of both orientations.

For another assay, the target named is T18, 4H4038-AA.
T18 chain: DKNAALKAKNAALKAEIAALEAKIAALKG
Description: two-hybrid library CCmax. Particulars: mean of both orientations.

The target of another assay is T19, 4H2736-AA.
T19 chain: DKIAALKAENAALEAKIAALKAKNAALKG
Description: two-hybrid library CCmax. Particulars: mean of both orientations.

The next assay addresses T20, O13-AA.
T20 chain: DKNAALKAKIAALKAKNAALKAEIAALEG
Description: two-hybrid library CCmax. To be noted: mean of both orientations.

The target of the next assay is T21, 4H2888-AA.
T21 chain: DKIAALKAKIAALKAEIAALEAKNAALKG
The experiment in a line: two-hybrid library CCmax. To be noted: mean of both orientations.

A further assay deals with T22, O11-AA.
T22 chain: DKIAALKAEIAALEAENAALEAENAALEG
Description: two-hybrid library CCmax. Particulars: mean of both orientations.

A further assay deals with T23, 4H337-AA.
T23 chain: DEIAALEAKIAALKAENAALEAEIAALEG
The experiment in a line: two-hybrid library CCmax. Particulars: mean of both orientations.

In a further assay the target is GCN2_T. The experiment in a line: two-hybrid library CCmax. To be noted: mean of both orientations.
The target of a further assay is 4H_GCN4. The experiment in a line: two-hybrid library CCmax.
A further assay deals with T24, 4H1193-AA.
T24 chain: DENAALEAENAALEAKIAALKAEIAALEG
The experiment in a line: two-hybrid library CCmax.

For another assay, the target named is T25, 4H3905-AA.
T25 chain: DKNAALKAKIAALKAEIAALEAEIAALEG
Description: two-hybrid library CCmax. Particulars: mean of both orientations.

A further assay has as its target T26, 4H1710-bH.
T26 chain: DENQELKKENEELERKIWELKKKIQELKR
Description: two-hybrid library CCNG1.

The next assay concerns the target T27, 4H1544-bH.
T27 chain: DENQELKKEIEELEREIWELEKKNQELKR
The experiment in a line: two-hybrid library CCNG1.

For a further assay, the target named is T28, 4H1449-bH.
T28 chain: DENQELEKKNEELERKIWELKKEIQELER
The experiment in a line: two-hybrid library CCNG1.

The target in the next assay is T29, 4H1373-bH.
T29 chain: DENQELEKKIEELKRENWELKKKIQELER
Description: two-hybrid library CCNG1.

A further assay addresses T30, 4H1338-bH.
T30 chain: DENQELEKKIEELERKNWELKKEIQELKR
Description: two-hybrid library CCNG1.

Another assay deals with T31, 4H3974-bH.
T31 chain: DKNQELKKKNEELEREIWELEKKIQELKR
Description: two-hybrid library CCNG1.

The next assay has as its target T32, 4H3817-bH.
T32 chain: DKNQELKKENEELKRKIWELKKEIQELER
The experiment in a line: two-hybrid library CCNG1.

In another assay the target is T33, 4H1899-bH.
T33 chain: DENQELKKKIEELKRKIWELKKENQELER
Description: two-hybrid library CCNG1.

Another assay has as its target T34, 4H3613-bH.
T34 chain: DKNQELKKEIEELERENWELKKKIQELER
The experiment in a line: two-hybrid library CCNG1.

In the next assay the target is T35, 4H850-bH.
T35 chain: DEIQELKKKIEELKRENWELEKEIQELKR
Description: two-hybrid library CCNG1.

Another assay has as its target T36, 4H1985-bH.
T36 chain: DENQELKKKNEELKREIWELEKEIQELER
The experiment in a line: two-hybrid library CCNG1.

For the next assay, the target named is T37, 4H1348-bH.
T37 chain: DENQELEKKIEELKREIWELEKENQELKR
Description: two-hybrid library CCNG1.

The next assay has as its target T38, 4H570-bH.
T38 chain: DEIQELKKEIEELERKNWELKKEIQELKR
Description: two-hybrid library CCNG1.

Another assay concerns the target T39, 4H3628-bH.
T39 chain: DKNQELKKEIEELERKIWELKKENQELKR
The experiment in a line: two-hybrid library CCNG1.

In a further assay the target is T40, 4H3858-bH.
T40 chain: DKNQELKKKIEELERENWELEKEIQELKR
The experiment in a line: two-hybrid library CCNG1.

For a further assay, the target named is T41, 4H629-AA.
T41 chain: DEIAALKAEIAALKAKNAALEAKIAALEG
The experiment in a line: two-hybrid library CCmax. Particulars: mean of both orientations.

In another assay the target is T42, 4H570-AA.
T42 chain: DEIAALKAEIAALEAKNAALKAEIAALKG
Description: two-hybrid library CCmax. To be noted: mean of both orientations.

A further assay addresses T43, 4H94-AA.
T43 chain: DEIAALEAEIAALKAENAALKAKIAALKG
Description: two-hybrid library CCmax. To be noted: mean of both orientations.

The target of another assay is T44, 4H982-AA.
T44 chain: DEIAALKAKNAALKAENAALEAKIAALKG
Description: two-hybrid library CCmax. Particulars: mean of both orientations.

In the next assay the target is T45, 4H850-AA.
T45 chain: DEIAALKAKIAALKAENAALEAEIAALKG
The experiment in a line: two-hybrid library CCmax. To be noted: mean of both orientations.

Another assay concerns the target T46, 4H458-AA.
T46 chain: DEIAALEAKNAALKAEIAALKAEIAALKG
Description: two-hybrid library CCmax. To be noted: mean of both orientations.

The target in a further assay is T47, 4H797-AA.
T47 chain: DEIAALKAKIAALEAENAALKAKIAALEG
Description: two-hybrid library CCmax. Particulars: mean of both orientations.

The target of a further assay is T48, 4H710-AA.
T48 chain: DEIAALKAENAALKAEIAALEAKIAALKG
The experiment in a line: two-hybrid library CCmax. Particulars: mean of both orientations.

In a further assay the target is T49, 4H909-AA.
T49 chain: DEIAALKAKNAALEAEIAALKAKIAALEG
Description: two-hybrid library CCmax. To be noted: mean of both orientations.

Another assay concerns the target T50, 4H745-AA.
T50 chain: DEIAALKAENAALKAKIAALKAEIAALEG
The experiment in a line: two-hybrid library CCmax. To be noted: mean of both orientations.

A further assay has as its target T51, 4H485-AA.
T51 chain: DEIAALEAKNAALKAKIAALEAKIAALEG
Description: two-hybrid library CCmax. Particulars: mean of both orientations.

For a further assay, the target named is T52, 4H3865-AA.
T52 chain: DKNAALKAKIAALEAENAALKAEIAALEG
Description: two-hybrid library CCmax.

The next assay addresses T53, 4H891-AA.
T53 chain: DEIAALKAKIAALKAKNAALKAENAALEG
The experiment in a line: two-hybrid library CCmax. Particulars: mean of both orientations.

The target in the next assay is T54, 4H536-AA.
T54 chain: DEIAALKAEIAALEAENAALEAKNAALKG
Description: two-hybrid library CCmax. To be noted: mean of both orientations.

For another assay, the target named is T55, 4H697-AA.
T55 chain: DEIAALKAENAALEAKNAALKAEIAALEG
Description: two-hybrid library CCmax.

A further assay deals with T56, P5-AA-1HAA-R.
T56 chain: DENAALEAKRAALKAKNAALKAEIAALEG
Description: two-hybrid library CCmax.

Another assay deals with T57, 4H930-AA.
T57 chain: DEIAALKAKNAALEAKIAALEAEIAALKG
Description: two-hybrid library CCmax. Particulars: mean of both orientations.

Chain of 4H_GCN4 (chain, as listed by the source): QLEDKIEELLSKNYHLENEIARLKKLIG

B1: 4H1193-AA (peptide)
chain: DENAALEAENAALEAKIAALKAEIAALEG
In the case of B1, the interaction score in the assay with 4H1392-AA was -0.855; with 4H_BCR, -1.78; with 4H1385-AA, -0.776; in the assay with O14-AA it was -1.3; with 4H451-AA, -1.06; with 4H3587-AA, 0.0373. The interaction score in the assay with 4H3590-AA was 1.11; with 4H384-AA, -1.19; with 4H1350-AA, 1.11; with 4H3049-AA, 1.47; with 4H2705-AA, -1.54; in the assay with 4H2622-AA, 1.87. The interaction score in the assay with 4H510-AA was -0.152; with 4H43-AA, -0.557; with 4H_APH, -1.85; with 4H3625-AA, 0.75; with 4H134-AA it was 1.42; in the assay with 4H4038-AA it was 2.18. For the same molecule, the interaction score with 4H2736-AA is -0.353; with O13-AA, -0.387; with 4H2888-AA, 0.331; with O11-AA it was -1.11; in the assay with 4H337-AA, -1.69; in the assay with GCN2_T, -1.62. Besides, the interaction score is -1.64 with 4H_GCN4, -1.08 with 4H1193-AA and -0.00198 with 4H3905-AA.

B2: 4H1338-bH (peptide)
chain: DENQELEKKIEELERKNWELKKEIQELKR
Regarding B2, the interaction score was -0.178 with 4H1710-bH; 0.712 with 4H1544-bH; -0.182 with 4H1449-bH; 0.156 with 4H1373-bH; 0.937 with 4H1338-bH; 0.694 in the assay with 4H3974-bH. The interaction score with 4H3817-bH was -0.423; with 4H1899-bH, -0.277; with 4H3613-bH it was -0.0861; with 4H850-bH, 1.44; with 4H1985-bH, 0.0593; with 4H1348-bH, 1.22. Besides, the interaction score with 4H570-bH is -0.436; with 4H3628-bH, 0.15; in the assay with 4H3858-bH it was 1.35.

B3: 4H3865-AA (peptide)
chain: DKNAALKAKIAALEAENAALKAEIAALEG
Consider B3, for which the interaction score with 4H629-AA is -1.62; with 4H570-AA it was 0.484; with 4H94-AA, 1.56; with 4H982-AA, -0.79; with 4H850-AA, 1.18; with 4H458-AA it was -1.15. Also, the interaction score with 4H797-AA was 1.12; in the assay with 4H710-AA it was -1.84; with 4H909-AA it was -1.04; in the assay with 4H745-AA, -0.83; in the assay with 4H485-AA, -1.27; with 4H3865-AA it was 0.444. For the same molecule, the interaction score in the assay with 4H891-AA was -1.81; with 4H536-AA, -0.909; with 4H697-AA, -1.81; with P5-AA-1HAA-R it was -0.395; in the assay with 4H930-AA, -1.43.

For the origin of these results see publication PMC10397247.
